Source: patent publication US11464867B2, “Multimeric elastin-like polypeptides” (University of Southern California, priority 2018, dated 2022)
Several values for one entry are separate records, joined by “and”; a condition that tells them apart may be missing. Equal values may be shown once. Entries after “also recorded” stand apart in the source; their conditions may differ.

What was measured:
[1] = ATRA encapsulation in 4PA, two phase method, HPLC; assay type: physicochemical; conditions: control ELP
Source text: FIG. 21: SDS PAGE was used to resolve the purified 4PA fusion protein. To formulate ATRA-loaded 4PA, a two phase encapsulation method was adopted. After removing undissolved drug, HPLC was used to quantify 4PA and ATRA concentrations. Encapsulation ratio, defined as CATRA/C4PA was 2.7, theoretical maximum being 4.

[2] = system: HeLa cells; assay: HeLa cell uptake, co-localization with lysosomes (confocal microscopy); assay type: cell-based; conditions: 30 μM rhodamine-labeled ELP; 120 min; LysoTracker Green
Method: Lysosomes were labeled by LysoTracker Green® having the structure:
In order to further validate the potential efficacy of CA192 working as a potent drug binding domain, an in vitro cell uptake study was performed. Briefly, CA192 and A192 was labeled with rhodamine and HeLa cell lysosome with LysoTracker Green (LTG)® having the structure as described herein. For the treatment group, HeLa cells were incubated with 30 μM of rhodamine-labeled (rh)-CA192 and 70 nM of LTG for 120 min. For the control group, HeLa cells were incubated with 30 μM of rhodamine-labeled (rh)-A192 and 70 nM of LTG for 120 min. Cells were then rinsed with warm HBSS three times, maintained in the fresh culture medium, and imaged by confocal microscopy. Images were acquired using a Zeiss laser scanning microscope 510 Meta NLO confocal imaging system equipped with Argon, red HeNe, green HeNe laser, and a Coherent Chameleon Ti-Sapphire laser (LSM) mounted on a vibration-free table (Carl Zeiss, Thornwood, N.Y.). All images were acquired using a Plan-Apochromat 63× Oil immersion lens with a working distance of 0.19 mm.

[3] = Dynamic light scattering (DLS) hydrodynamic radius and stability; assay type: physicochemical; conditions: DLS intensity; 20 μM
Method: FIGS. 5A-5D: CA192 (SEQ ID NO: 3) has a good stability in terms of hydrodynamic radius. There are two fractions present in the CA192 (SEQ ID NO: 3) solution: an aggregated form and dimeric form. A dimerized form has similar hydrodynamic radius, Rh as A192. […] Drug-loaded CA192 (SEQ ID NO: 3) has a mean Rh of 64.5±0.5 nm (p<0.05). […] (FIG. 5C) Size Exclusion Chromatography (SEC) was conducted to fractionate CA192 (SEQ ID NO: 3) depending on their particle size. Two fractions were observed. […] In contrast, the fraction 1 contains a mixture of larger aggregates.
The hydrodynamic radius (Rh) of both the loaded and unloaded fusion protein, along with plain A192, was measured via dynamic light scattering (DLS) using a DynaPro Plate Reader II from Wyatt Technology. Before the DLS measurement, solutions were filtered through […] pore size filters. The concentration of each solution was then adjusted to 20 μM. 60 μL from each sample was pipetted into three different wells on the plate reader and covered by 15 μL mineral oil each to avoid solvent evaporation. […] Briefly, the fusion solution was incubated at 37° C. for different periods of time up to 48 h and the mean Rh of CA192 at these different time points was measured with DLS. […] (FIG. 5D) Through measuring the CA192 concentration of both fractions, Applicants determined that 20.8% by mass in solution is represented by the multimerized particles. […]

[4] = Phase transition temperature by optical density (UV-Vis, 350 nm) versus temperature; assay type: physicochemical; conditions: mean ± 95% CI, Table 2
Method: The temperature with the maximum positive slope was defined as the phase transition temperature for each condition. (FIG. 2B) The concentration-temperature phase diagram was determined for both ELPs, and fit to the following equation: Tt=b−m Log10[CELP].
Both ELPs at different concentrations (5 μM to 100 μM) were subject to a precisely controlled temperature increase from 25 to 75° C. at a rate of 1° C./min. The Tt of ELPs is defined as the temperature at which the first derivative of the optical density with respect to the temperature reaches a maximum.

B1: (VPGAG)192 (protein)
chain: VPGAGVPGAGVPGAGVPGAGVPGAGVPGAGVPGAGVPGAGVPGAGVPGAGVPGAGVPGAGVPGAGVPGAGVPGAGVPGAGVPGAGVPGAGVPGAGVPGAGVPGAGVPGAGVPGAGVPGAGVPGAGVPGAGVPGAGVPGAGVPGAGVPGAGVPGAGVPGAGVPGAGVPGAGVPGAGVPGAGVPGAGVPGAGVPGAGVPGAGVPGAGVPGAGVPGAGVPGAGVPGAGVPGAGVPGAGVPGAGVPGAGVPGAGVPGAGVPGAGVPGAGVPGAGVPGAGVPGAGVPGAGVPGAGVPGAGVPGAGVPGAGVPGAGVPGAGVPGAGVPGAGVPGAGVPGAGVPGAGVPGAGVPGAGVPGAGVPGAGVPGAGVPGAGVPGAGVPGAGVPGAGVPGAGVPGAGVPGAGVPGAGVPGAGVPGAGVPGAGVPGAGVPGAGVPGAGVPGAGVPGAGVPGAGVPGAGVPGAGVPGAGVPGAGVPGAGVPGAGVPGAGVPGAGVPGAGVPGAGVPGAGVPGAGVPGAGVPGAGVPGAGVPGAGVPGAGVPGAGVPGAGVPGAGVPGAGVPGAGVPGAGVPGAGVPGAGVPGAGVPGAGVPGAGVPGAGVPGAGVPGAGVPGAGVPGAGVPGAGVPGAGVPGAGVPGAGVPGAGVPGAGVPGAGVPGAGVPGAGVPGAGVPGAGVPGAGVPGAGVPGAGVPGAGVPGAGVPGAGVPGAGVPGAGVPGAGVPGAGVPGAGVPGAGVPGAGVPGAGVPGAGVPGAGVPGAGVPGAGVPGAGVPGAGVPGAGVPGAGVPGAGVPGAGVPGAGVPGAGVPGAGVPGAGVPGAGVPGAGVPGAGVPGAGVPGAGVPGAGVPGAGVPGAGVPGAGVPGAGVPGAGVPGAGVPGAGVPGAGVPGAGVPGAGVPGAGVPGAGVPGAGVPGAGVPGAGVPGAGVPGAGVPGAGVPGAGVPGAGVPGAGVPGAGVPGAGVPGAG
[1]
  ATRA peak on HPLC after encapsulation: not detectable
[2]
  co-localization with lysosomes: obvious co-localization with lysosome; also recorded: co-localized with lysosomes; also recorded: co-localizing with lysosomes
[3]
  mean hydrodynamic radius (Rh): 7.3±0.6 nm and 7.3±0.4 nm
[4]; fit Tt = b - m Log10[CELP]
  Slope, m: 8.3 ± 0.28 ° C./Log10(μM)
[4]; intercept at 1 μM
  Intercept, b: 72.3 ± 0.41 °C
